Test results from publication PMC4755738, “Actin filaments target the oligomeric maturation of the dynamin GTPase Drp1 to mitochondrial fission sites” (eLife, 2015).

Tests used:
[1] = molecular target: T1, Rabbit skeletal muscle actin (filaments) (rabbit, UniProt P68135 1-377); assay: co-sedimentation; high-speed co-sedimentation; Drp1 1.3 uM with pre-polymerized actin filaments 0.25-10 uM, 1 hr at 23 C, 200 ul, ionic strength 75 mM (NaCl); 80,000 rpm 20 min 4 C (TLA-100.1); pellets on SDS-PAGE, Colloidal blue, ImageJ; apparent Kd; settings: both partners purified
[2] = molecular target: T1, Rabbit skeletal muscle actin (filaments); assay: cell-based or functional assay

Kd [1]: 800 ± 400 nM | Drp1 GTPase activity (malachite green phosphate release) with 0.5 or 1 uM pre-polymerized actin filaments, against Drp1 alone [2]: ~3.5 fold
B1: Human Drp1 isoform 000 (E. coli-purified) (enzyme)
chain: MEALIPVINKLQDVFNTVGADIIQLPQIVVVGTQSSGKSSVLESLVGRDLLPRGTGIVTRRPLILQLVHVSQEDKRKTTGEENGVEAEEWGKFLHTKNKLYTDFDEIRQEIENETERISGNNKGVSPEPIHLKIFSPNVVNLTLVDLPGMTKVPVGDQPKDIELQIRELILRFISNPNSIILAVTAANTDMATSEALKISREVDPDGRRTLAVITKLDLMDAGTDAMDVLMGRVIPVKLGIIGVVNRSQLDINNKKSVTDSIRDEYAFLQKKYPSLANRNGTKYLARTLNRLLMHHIRDCLPELKTRINVLAAQYQSLLNSYGEPVDDKSATLLQLITKFATEYCNTIEGTAKYIETSELCGGARICYIFHETFGRTLESVDPLGGLNTIDILTAIRNATGPRPALFVPEVSFELLVKRQIKRLEEPSLRCVELVHEEMQRIIQHCSNYSTQELLRFPKLHDAIVEVVTCLLRKRLPVTNEMVHNLVAIELAYINTKHPDFADACGLMNNNIEEQRRNRLARELPSAVSRDKVASGGGGVGDGVQEPTTGNWRGMLKTSKAEELLAEEKSKPIPIMPASPQKGHAVNLLDVPVPVARKLSAREQRDCEVIERLIKSYFLIVRKNIQDSVPKAVMHFLVNHVKDTLQSELVGQLYKSSLLDDLLTESEDMAQRRKEAADMLKALQGASQIIAEIRETHLW
notes: Drp1 (dynamin-related protein 1), human, isoform 000 of Strack et al. 2013; Cloned in pET16b with an N-terminal Strep-tag followed by an HRV3C protease site; eluted from the resin by HRV3C cleavage; Used in high-speed co-sedimentation and GTPase assays; also called dynamin GTPase Drp1; not shown: Strep-tag, N-terminal, cleaved
